The values below come from patent US7741541.

The target of this assay is barnase (ribonuclease from Bacillus amyloliquefaciens) (Bacillus amyloliquefaciens) (UniProt P00648). Description: cell-based or functional assay.
UniProt P00648, sequence (P00648 48-157 limits assumed): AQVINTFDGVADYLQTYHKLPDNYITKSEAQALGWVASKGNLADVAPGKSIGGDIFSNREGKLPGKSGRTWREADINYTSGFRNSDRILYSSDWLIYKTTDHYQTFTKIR

Regarding “barstar protein (product of the wild type and of the modified barstar gene of Bacillus amyloliquefaciens) (from UniProt P11540 2-90)”, the Percent of restored (male fertile) plants after transformation of barnase line bn 3.6 with construct A, A9-bs(fm)::TA29-bs(wt) turned out to be 89.8%; the Percent of restored (male fertile) plants after transformation of barnase line bn 3.6 with construct B, TA29-bs(wt) was found to be 65.6%; the Percent of restored (male fertile) plants after transformation of barnase line bn 3.6 with construct C, A9-bs(wt) was 12.7%; the Percent of restored (male fertile) plants after transformation of barnase line bn 3.6 with construct D, A9-bs(fm) is 10.8%.
